“Also recorded” adds a separate entry of the source. Residues, ends and D or L forms follow the SMILES beside them. No end group written: not given here.
Columns and labels:
prothrombinase [1] = target: T1, prothrombinase (Homo sapiens, UniProt P00742); assay: fluorescent prothrombinase assay (DAPA; conversion of prothrombin to α-thrombin); assay type: biochemical; settings: for IC50: fluorescent assay, DAPA fluorescence, read-out: IC50 for inhibition of prothrombinase activity
T1 construct: purchased Haematologic Technologies, Inc
T1 sequence (P00742 41-179 limits assumed): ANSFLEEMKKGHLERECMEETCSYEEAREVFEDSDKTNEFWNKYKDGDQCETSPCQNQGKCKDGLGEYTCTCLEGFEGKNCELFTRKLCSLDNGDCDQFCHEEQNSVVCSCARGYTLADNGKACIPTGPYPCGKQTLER
T1 sequence (P00742 235-488 limits assumed): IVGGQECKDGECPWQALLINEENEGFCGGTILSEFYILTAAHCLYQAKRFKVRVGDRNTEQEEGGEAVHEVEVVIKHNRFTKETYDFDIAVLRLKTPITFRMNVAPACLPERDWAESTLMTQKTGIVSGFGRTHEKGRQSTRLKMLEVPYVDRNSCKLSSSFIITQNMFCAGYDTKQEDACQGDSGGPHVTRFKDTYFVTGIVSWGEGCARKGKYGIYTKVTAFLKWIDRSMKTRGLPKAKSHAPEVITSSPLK
Excerpt: The assay used to obtain the data shown in FIG. 4 is a fluorescent assay that is described in Example 3 of this document. Briefly, the fluorescent assay, in contrast to the visual assay, measures only one reaction of the many necessary for formation of a blood clot. The fluorescent assay measures conversion of prothrombin to a-thrombin as catalyzed by prothrombinase. A fluorescent assay reaction contains prothrombin, factor Xa, factor Va and a preparation of phospholipid vesicles, which facilitate assembly of the aforementioned components into a functioning prothrombinase enzyme.
Each fluorescent assay also contains a fluorescent compound called dansylarginine-N-(3-ethyl-1,5-pentanediyl)amide (or DAPA for short). DAPA specifically binds to α-thrombin, the product of the prothrombinase reaction. Binding of DAPA by α-thrombin increases the fluorescence intensity of DAPA. In the case where no peptide inhibitor of prothrombinase is present in the reaction, high levels of α-thrombin are produced in the reaction, and DAPA fluorescence is high. When a peptide inhibitor of prothrombinase is present, little α-thrombin is produced in the reaction, and DAPA fluorescence is low. Therefore, by measuring DAPA fluorescence, the inhibitory ability of each peptide is determined.
The identity of reactions containing each peptide, as well as the reactions containing no peptide (labeled “Xa/Va”) or no peptide and no factor Va (labeled “Xa”) is shown on the x-axis of FIG. 4.
Activities of prothrombinase, as measured by DAPA fluorescence, are shown on the y-axis of FIG. 4. […] DAPA fluorescence in the absence of both peptide and factor Va (the bar labeled “APXa” in FIG. 4) is 9% of the APXa/Va activity, and is background fluorescence.
The fluorescence assay specifically measured the conversion of prothrombin to α-thrombin, one essential reaction of the many required for blood clotting (see FIG. 1). […]
The fluorescent properties of DAPA were contributed by the dansyl moiety. When bound to α-thrombin, the fluorescence intensity and lifetime of the dansyl moiety were increased three-fold. Therefore, in this assay, when prothrombinase activity was uninhibited, α-thrombin was produced (see FIG. 1) and DAPA fluorescence was high. When prothrombinase activity was inhibited, as in the presence of peptide prothrombinase inhibitors, α-thrombin was not produced and DAPA fluorescence was low.
In a typical assay, the final concentrations of reagents were as follows: prothrombin, 1.4 μM; factor Xa, 10 nM; factor Va, 1 nM; phospholipid vesicles, 20 μM; DAPA, 3 μM; peptide, 100 μM. […] After centrifugation to isolate the vesicles, the concentration of the vesicles was determined by phosphorus assay (Gomori, 1942, J Lab Clin Med, 27:955-60). […]

prothrombinase [2] = target: T1, prothrombinase; assay: visual blood clotting assay (factor V-depleted plasma, thromboplastin, factor Va); assay type: biochemical; settings: increasing peptide concentrations, as high as 250 μM
Excerpt: FIG. 3 is a graph showing inhibition of prothrombinase activity by the 42 amino acid peptide NR42, encompassing amino acids 307-348 of the human factor Va heavy chain (SEQ ID NO. 2). The assay used to obtain the data shown in FIG. 3 is a visual blood clotting assay that is described in detail in Example 2 of this document.
Briefly, in the visual blood clotting assay, reactions are set up that contain all components of the blood necessary to form a blood clot and the time required for formation of a visual blood clot is recorded. To test inhibitory activity of the NR42 peptide, different concentrations of NR42 are added to a series of such reactions. […] The time required for an observable blood clot to form in the absence of NR42 peptide (0 μM peptide on the x-axis) is designated as 100% prothrombinase activity, as shown on the y-axis of FIG. 3. Inhibition of blood clotting by […] results in longer clotting times. Longer clotting times are shown on the y-axis of the graph as decreased prothrombinase activity. […]
Factor Va was purchased or, alternatively was produced by treatment of 50 nM of purified factor V (Haematologic Technologies, Inc.) with 1 nM α-thrombin for 10 min followed by the addition of 2 nM hirudin. […] This time was arbitrarily determined to be 100% activity. […]

[3] = target: prothrombinase (factor Xa plus factor Va) (human) (UniProt P00742)
[4] = target: factor Xa (Homo sapiens (Human)) (UniProt P00742)
[5] = series of peptide concentrations

Molecule: CC[C@H](C)[C@H](NC(=O)[C@H](Cc1ccccc1)NC(=O)[C@H](Cc1ccc(O)cc1)NC(=O)[C@H](CCC(=O)O)NC(=O)[C@@H](N)Cc1c[nH]c2ccccc12)C(=O)N[C@@H](C)C(=O)N[C@@H](C)C(=O)N[C@@H](CCC(=O)O)C(=O)N[C@@H](CCC(=O)O)C(=O)N[C@H](C(=O)O)C(C)C [AP4, Trp Glu Tyr Phe Ile Ala Ala Glu Glu Val] (H-WEYFIAAEEV-OH)
- IC50 (prothrombinase [1]; [5]): ~5 µM

Molecule: CC[C@H](C)[C@H](N)C(=O)N[C@@H](Cc1c[nH]c2ccccc12)C(=O)N[C@@H](CC(=O)O)C(=O)N[C@@H](Cc1ccc(O)cc1)C(=O)N[C@@H](C)C(=O)N1CCC[C@H]1C(=O)N[C@H](C(=O)N[C@H](C(=O)N1CCC[C@H]1C(=O)N[C@@H](C)C(=O)O)[C@@H](C)CC)C(C)C [AP6, Ile Trp Asp Tyr Ala Pro Val Ile Pro Ala] (H-IWDYAPVIPA-OH)
- IC50 (prothrombinase [1]; [5]): ~30 µM

Molecule: DR13: control peptide encompassing amino acids 697 to 709 of the factor Va heavy chain (DADSDYQDELALI)
- effect on blood clotting time and prothrombinase activity (in words) (prothrombinase [2]): do not significantly affect blood clotting time and prothrombinase activity
- effect on blood clotting time and prothrombinase activity (in words) (prothrombinase [2]; listed as D13R): did not inhibit prothrombinase activity

Molecule: EYFAE (peptide)
- IC50, inhibition of prothrombinase, fluorescent assay (DAPA) [3]: 10 to 15 µM

Molecule: NMDKKYRSQH [AP8, 10 amino acid peptide adjacent to and overlapping AP9]
- prothrombinase activity relative to the no peptide reaction (prothrombinase [1]; 100 μM peptide, no peptide reaction (Xa/Va) = 100%, remaining activity): approximately 80%

Molecule: P15H: 15 amino acid peptide encompassing amino acids 337-351 of human factor Va; used as negative control (PIIPANMDKKYRSLH) [Peptide P15H]
- inhibition of prothrombinase activity (in words) (prothrombinase [1]; series of peptide concentrations, up to approximately 500 μM): did not inhibit prothrombinase; also recorded: does not inhibit prothrombinase activity

Molecule: factor Va (from UniProt P12259)
- prothrombinase activity by DAPA fluorescence, factor Xa with and without factor Va (% of the Xa/Va activity) [4]: 9
